Assay results: article PMC3587138 (Nature, 2011)

B1: N-terminal 65-amino-acid fragment of Snu66 (domain or fragment, S. cerevisiae, UniProt Q12420 1-65, looked up)
chain: MNKTENLSIEETNEIREKLGMKPIPVFQEKNTDHKESLSIEETNELRASLGLKLIPPQQNFNSSP
B2: recombinant 6×His-tagged Hub1 (natural protein, S. cerevisiae)
chain: MIEVVVNDRLGKKVRVKCLAEDSVGDFKKVLSLQIGTQPNKIVLQKGGSVLKDHISLEDYEVHDQTNLELYYL

Assays:
[1] = target: B2; experiment: NMR titration
[2] = target: T1, full-length Snu66 (recombinant) (S. cerevisiae, UniProt Q12420 1-587); experiment: ITC
T1 sequence (looked up): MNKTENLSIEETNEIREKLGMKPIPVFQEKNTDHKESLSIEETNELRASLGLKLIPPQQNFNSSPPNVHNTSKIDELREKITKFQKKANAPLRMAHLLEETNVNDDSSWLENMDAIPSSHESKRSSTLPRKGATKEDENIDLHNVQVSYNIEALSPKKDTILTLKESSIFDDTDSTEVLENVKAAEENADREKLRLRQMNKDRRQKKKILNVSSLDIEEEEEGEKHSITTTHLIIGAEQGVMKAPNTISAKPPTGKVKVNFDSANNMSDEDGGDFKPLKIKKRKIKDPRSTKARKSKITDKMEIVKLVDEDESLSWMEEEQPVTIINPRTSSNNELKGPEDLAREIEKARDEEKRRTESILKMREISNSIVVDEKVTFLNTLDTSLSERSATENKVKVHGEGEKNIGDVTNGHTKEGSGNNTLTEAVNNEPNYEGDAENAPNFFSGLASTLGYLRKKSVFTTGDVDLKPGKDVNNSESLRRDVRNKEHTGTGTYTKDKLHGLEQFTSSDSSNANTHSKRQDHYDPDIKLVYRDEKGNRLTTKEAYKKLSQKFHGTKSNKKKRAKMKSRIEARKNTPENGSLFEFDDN

Binder | binding result [1] | Kd [2] [nM]
B1 | binds | 
B2 |  | 590 ± 70
